Data from article PMC10648341, “Cloning and Functional Characterization of NADPH-Cytochrome P450 Reductases in Aconitum vilmorinianum” (Molecules, 2023).

Experiments:
CYP76AH1 = biological target: T1, CYP76AH1 (Salvia miltiorrhiza, UniProt S4UX02); assay: HPLC of yeast extracts, ferruginol formation; format: cell-based; conditions: miltiradiene made by host yeast YJ14; co-expressed AvCPR1, AvCPR2 or SmCPR1
T1 construct: ORF in pESC-His, co-expressed with AvCPR1 (also AvCPR2 or SmCPR1) in miltiradiene-producing yeast YJ14; with NADPH--cytochrome P450 reductase 1 (Aconitum vilmorinianum)
T1 sequence (S4UX02 1-495): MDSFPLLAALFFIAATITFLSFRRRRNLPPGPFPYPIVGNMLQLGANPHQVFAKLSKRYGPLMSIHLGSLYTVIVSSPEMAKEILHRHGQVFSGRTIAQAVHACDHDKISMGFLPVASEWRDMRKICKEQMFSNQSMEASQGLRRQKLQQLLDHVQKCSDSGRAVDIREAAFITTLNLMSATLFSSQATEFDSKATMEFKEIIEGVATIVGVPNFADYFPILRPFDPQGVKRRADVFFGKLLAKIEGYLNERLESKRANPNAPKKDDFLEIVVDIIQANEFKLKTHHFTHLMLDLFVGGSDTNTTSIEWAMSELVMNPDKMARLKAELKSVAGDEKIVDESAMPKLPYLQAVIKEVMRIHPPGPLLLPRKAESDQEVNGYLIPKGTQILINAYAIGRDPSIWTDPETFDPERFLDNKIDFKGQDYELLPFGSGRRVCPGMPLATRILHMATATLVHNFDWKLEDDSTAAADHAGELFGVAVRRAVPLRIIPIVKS

cytochrome c = cytochrome c (UniProt P00004)
Chain of cytochrome c (P00004 whole entry): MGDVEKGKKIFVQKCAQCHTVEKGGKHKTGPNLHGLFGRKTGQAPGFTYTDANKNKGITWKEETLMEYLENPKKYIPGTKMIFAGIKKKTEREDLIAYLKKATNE

| Compound | HPLC of yeast extracts, ferruginol formation (CYP76AH1) | Km for cytochrome c: steady-state reduction of cytochrome c (0-200 μM) by 4 μg recombinant enzyme with 100 μmol/L NADPH, absorbance at 550 nm, 100 mM Tris-HCl, 0.1 mM EDTA, pH 7.4, 25 °C (cytochrome c) |
| --- | --- | --- |
| CC(C)c1cc2c(cc1O)[C@@]1(C)CCCC(C)(C)[C@@H]1CC2 [ferruginol] | transgenic strains co-expressing AvCPRs or SmCPR with CYP76AH1 produced ferruginol |  |
| truncated AvCPR2 (NADPH-cytochrome P450 reductase 2 of Aconitum vilmorinianum, without the N-terminal membrane-anchoring region) (enzyme) |  | 78.1 μmol·L^−1 |
| truncated AvCPR1 (NADPH-cytochrome P450 reductase 1 of Aconitum vilmorinianum, without the N-terminal membrane-anchoring region) (enzyme) |  | 344 μmol·L^−1 |
